These results are taken from doi:10.1101/2020.01.15.908418.

Assay [1] deals with tropomyosin of murine cardiac thin filaments (mouse (endogenous in murine ventricular myocardium)) (UniProt P58771). The assay can be described thus: cryo-EM structure.
For assay [2] the target is unchanged. The assay can be described thus: cryo-EM structure. This is another data set of the same source.

Where two headings read alike, the source gives them in different places.

Turning to “tropomyosin of murine cardiac thin filaments (from UniProt P58771 1-284) (natural protein)”, the stoichiometry N in assay [1] and in assay [2] was 2 throughout.
